Measurements published in patent publication US20240352143A1 (Incyte, published 2024).

B1: HzCL25 (antibody, human IgG1, kappa, N297A, V domains shown)
VH: EVQLVQSGAEVKKPGESLKISCKGSGYTFTSYGLSWVRQMPGKGLEWMGEIYPGSGNTYYNEKFKGQVTISADKSISTAYLQWSSLKASDTAMYYCARYDYLGSSYGFDYWGAGTTVTVSS
VL: DIVMTQSPDSLAVSLGERATINCKASQDVSTAVAWYQQKPGQPPKLLIYSASYRYSGVPDRFSGSGSGTDFTLTISSLQAEDVAVYYCQQHYNTPYTFGGGTKLEIKR
notes: Humanized IgG1/kappa with N297A (EU); also called HzCL25 IgG; humanized CL25
B2: CL25_hu_8-5 (antibody, V domains shown)
VH: QVQLVQSGAEVKKPGASVKVSCKASGYTFTSYGLSWVRQATGQGLEWMGEIYPGSGNTYYNEKFKGRVTMTRNTSISTAYMELSSLRSEDTAVYYCARYDYLGSSYGFDYWGAGTTVTVSS
VL: DIVMTQSPDSLAVSLGERATINCKASQDVSTAVAWYQQKPGQPPKLLIYSASYRYSGVPDRFSGSGSGTDFTLTISSLQAEDVAVYYCQQHYNTPYTFGGGTKLEIK
notes: Humanized CL25 variant

Key:
recombinant human CD73 = target: T1, recombinant human CD73 (human, UniProt P21589 27-549); test: enzyme inhibition assay with recombinant full length CD73, adenosine by LC-MS, mixed-inhibition model
T1 construct: Soluble recombinant CD73 (BPS Bioscience stock in the SPR); also called rhuCD73; human CD73, open conformation
T1 sequence: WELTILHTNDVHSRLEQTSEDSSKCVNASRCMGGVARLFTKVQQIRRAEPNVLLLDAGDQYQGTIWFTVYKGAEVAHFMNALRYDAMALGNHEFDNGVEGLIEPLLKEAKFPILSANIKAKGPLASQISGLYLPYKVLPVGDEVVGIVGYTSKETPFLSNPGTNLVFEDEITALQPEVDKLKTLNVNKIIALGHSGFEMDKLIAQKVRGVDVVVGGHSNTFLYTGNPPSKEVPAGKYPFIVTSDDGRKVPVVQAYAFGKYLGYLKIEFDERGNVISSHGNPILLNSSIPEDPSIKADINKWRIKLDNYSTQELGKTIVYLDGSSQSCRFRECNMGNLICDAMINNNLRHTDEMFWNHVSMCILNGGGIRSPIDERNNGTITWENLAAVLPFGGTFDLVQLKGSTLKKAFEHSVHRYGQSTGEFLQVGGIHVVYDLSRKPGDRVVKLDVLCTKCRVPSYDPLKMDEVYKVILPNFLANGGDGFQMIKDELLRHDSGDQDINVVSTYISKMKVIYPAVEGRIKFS
Experimental: Briefly, the inhibition potencies of the agents were measured in an enzyme assay using adenosine ¹³C₁₀, ¹⁵N₅ 5′-monophosphate sodium salt solution (650676, Sigma) as substrate and detecting product, adenosine by LC-MS. Antibody agents were serially diluted in buffer and a volume of 5 μL was transferred to a 96-well plate. 20 μL of 0.5 μM recombinant CD73 in assay buffer (25 mM Tris, 5 mM MgCl₂, 0.005% Brij35 pH 7.5) was added to the plate and pre-incubated for 2 hours at 25° C. The assay was initiated by the addition of a 25 μL solution containing AMP at various concentrations. The reactions were run for 0.5 hr at 25° C. and then quenched with 50 μL of methanol.

[1] = target: T2, cell surface CD73 on MDA-MB-231 and A375 cells (human, UniProt P21589 27-549); test: flow cytometry on MDA-MB-231 cells, antibody 30 min on ice, PE-conjugated secondary antibody, GMFI
T2 construct: A375: moderate level; also called cellular CD73
T2 sequence: T1 sequence
Experimental: The cells were stained with the indicated concentration of antibodies for 30 minutes on ice (FIG. 2A and FIG. 2B). Next, the cells were washed and stained using goat anti-mouse secondary conjugated to phycoerythrin (PE) for 30 minutes on ice. The cells were then washed and analyzed by flow cytometry. Geometric mean fluorescence intensity (GMFI) of CD73 staining was graphed (FIG. 2A and FIG. 2B).

Binder	Ki (recombinant human CD73)	EC50 (read off the curve) [1]
B1	0.3 nM	
B2		~0.06 µg/mL
